Experimental data as given in patent publication US20220389118A1 (Chugai, published 2022).

T1: human FcγRIIb extracellular domain (human, UniProt P31994 43-217)
T1 construct: also called FcγIIB; not shown: His tag at the C terminus
T1 sequence: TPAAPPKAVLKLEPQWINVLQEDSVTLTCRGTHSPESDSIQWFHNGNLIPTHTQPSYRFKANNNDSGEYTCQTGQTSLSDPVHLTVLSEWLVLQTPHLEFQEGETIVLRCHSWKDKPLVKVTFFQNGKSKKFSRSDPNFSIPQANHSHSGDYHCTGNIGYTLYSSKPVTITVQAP

T2: human FcγRIIa type R extracellular domain (human, UniProt P12318 34-217)
T2 construct: also called FcγRIIaR; FcγRIIa(R); not shown: His tag at the C terminus
T2 chain: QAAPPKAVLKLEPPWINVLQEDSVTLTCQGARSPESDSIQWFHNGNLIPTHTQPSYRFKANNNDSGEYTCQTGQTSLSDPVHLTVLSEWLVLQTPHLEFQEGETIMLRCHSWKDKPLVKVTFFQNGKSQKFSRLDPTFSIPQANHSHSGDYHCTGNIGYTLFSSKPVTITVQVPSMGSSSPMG

T3: human FcγRIIa type R (allotype R131) extracellular domain with C-terminal His tag (human, UniProt P12318 34-217)
T3 construct: extracellular domain; also called FcγRIIaR; FcγRIIa R type; not shown: His tag at the C terminus
T3 sequence (looked up): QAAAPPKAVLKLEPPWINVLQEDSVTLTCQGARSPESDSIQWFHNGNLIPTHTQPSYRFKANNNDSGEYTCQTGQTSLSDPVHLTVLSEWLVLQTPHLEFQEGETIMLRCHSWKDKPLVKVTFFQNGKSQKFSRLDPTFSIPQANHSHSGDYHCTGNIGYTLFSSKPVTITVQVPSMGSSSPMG

T4: human FcγRIIa type H (allotype H131) extracellular domain with C-terminal His tag (human, UniProt P12318 34-217)
T4 construct: extracellular domain; also called FcγRIIaH; FcγRIIa H type; not shown: His tag at the C terminus
T4 sequence (looked up): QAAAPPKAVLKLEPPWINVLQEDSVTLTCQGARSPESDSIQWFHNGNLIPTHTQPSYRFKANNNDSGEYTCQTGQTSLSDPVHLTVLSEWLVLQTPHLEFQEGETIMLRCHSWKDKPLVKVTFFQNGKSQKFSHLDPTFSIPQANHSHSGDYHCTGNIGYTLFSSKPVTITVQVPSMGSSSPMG

T5: human FcγRIIb extracellular domain with C-terminal His tag (human, UniProt P31994 43-217)
T5 construct: extracellular domain; not shown: His tag at the C terminus
T5 sequence (looked up): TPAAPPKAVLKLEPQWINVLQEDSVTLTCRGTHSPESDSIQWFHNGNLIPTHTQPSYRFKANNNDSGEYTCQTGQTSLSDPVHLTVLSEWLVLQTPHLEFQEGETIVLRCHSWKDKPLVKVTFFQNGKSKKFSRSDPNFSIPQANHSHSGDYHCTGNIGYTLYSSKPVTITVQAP


What was measured:
[1] = target: T6, human FcγRIa extracellular domain (human, UniProt P12314 16-292); test: SPR (Biacore), antibody captured on chip, FcγR extracellular domain as analyte, 25 C
T6 construct: also called CD64; not shown: His tag at the C terminus
T6 sequence (P12314 16-292): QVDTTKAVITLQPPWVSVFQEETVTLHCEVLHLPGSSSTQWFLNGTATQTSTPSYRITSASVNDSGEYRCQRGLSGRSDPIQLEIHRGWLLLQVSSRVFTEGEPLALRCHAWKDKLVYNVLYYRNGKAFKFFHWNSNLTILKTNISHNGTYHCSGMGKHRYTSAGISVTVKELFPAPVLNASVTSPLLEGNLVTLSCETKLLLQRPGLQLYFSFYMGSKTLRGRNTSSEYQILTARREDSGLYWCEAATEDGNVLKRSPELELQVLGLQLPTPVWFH

[2] = target: T1, human FcγRIIb extracellular domain; test: as above
[3] = target: T2, human FcγRIIa type R extracellular …; test: as above
[4] = target: T3, human FcγRIIa type R (allotype R131) …; test: SPR (Biacore), antibody captured, FcγR analyte
[5] = target: T4, human FcγRIIa type H (allotype H131) …; test: SPR (Biacore), antibody captured, FcγR analyte
[6] = target: T7, human FcγRIIIa type V (allotype V158) extracellular domain with C-terminal His tag (human, UniProt P08637 17-208); test: SPR (Biacore), antibody captured, FcγR analyte
T7 construct: extracellular domain; also called FcγRIIIaV; FcγRIIIa V type; not shown: His tag at the C terminus
T7 sequence (P08637 17-208 F176V): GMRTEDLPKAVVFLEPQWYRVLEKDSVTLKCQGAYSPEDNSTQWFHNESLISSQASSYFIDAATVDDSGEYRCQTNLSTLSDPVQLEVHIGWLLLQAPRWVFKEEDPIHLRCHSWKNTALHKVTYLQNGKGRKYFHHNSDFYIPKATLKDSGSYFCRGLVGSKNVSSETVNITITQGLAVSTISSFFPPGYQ

[7] = target: T8, human FcγRIa extracellular domain with C-terminal His tag (human, UniProt P12314 16-292); test: SPR (Biacore), antibody captured, FcγR analyte
T8 construct: not shown: His tag at the C terminus
T8 sequence (P12314 16-292): as the sequence (P12314 16-292) above

[8] = target: T5, human FcγRIIb extracellular domain with …; test: SPR (Biacore), antibody captured, FcγR analyte

Row | Kd [1] [nM] | Kd [2] [nM] | Kd [3] [nM] | Kd [4] [nM] | Kd [5] [nM] | Kd [6] [nM] | Kd [7] [nM] | Kd [8] [nM] | Binder
1 | – | – | – | 850 | 8300 | 53000 | – | – | IL6R-BP208/IL6R-L (antibody, human IgG1, kappa, copies: 2 + 2) heavy: QVQLQESGPGLVKPSETLSLTCAVSGHSISHDHAWSWVRQPPGEGLEWIGFISYSGITNYNPSLQGRVTISRDNSKNTLYLQMNSLRAEDTAVYYCARSLARTTAMDYWGEGTLVTVSSASTKGPSVFPLAPSSKSTSGGTAALGCLVKDYFPEPVTVSWNSGALTSGVHTFPAVLQSSGLYSLSSVVTVPSSSLGTQTYICNVNHKPSNTKVDKKVEPKSCDKTHTCPPCPAPDLLGDDSVFLFPPKPKDTLMISRTPEVTCVVVDVSDEDGEVKFNWYVDGVEVHNAKTKPREEQYNSTYRVVSVLTVLHQDWLNGKEYKCKVSNKALPRPIEKTISKAKGQPREPQVYTLPPSRDELTKNQVSLTCLVKGFYPSDIAVEWESNGQPENNYKTTPPVLDSDGSFFLYSKLTVDKSRWQQGNVFSCSVMHEALHNHYTQESLSLSP light: not shown
2 | – | – | – | – | 10000 | 41000 | 39 | 51 | IL6R-BP209/IL6R-L (antibody, human IgG1, kappa, copies: 2 + 2) heavy: QVQLQESGPGLVKPSETLSLTCAVSGHSISHDHAWSWVRQPPGEGLEWIGFISYSGITNYNPSLQGRVTISRDNSKNTLYLQMNSLRAEDTAVYYCARSLARTTAMDYWGEGTLVTVSSASTKGPSVFPLAPSSKSTSGGTAALGCLVKDYFPEPVTVSWNSGALTSGVHTFPAVLQSSGLYSLSSVVTVPSSSLGTQTYICNVNHKPSNTKVDKKVEPKSCDKTHTCPPCPAPELLGDDSVFLFPPKPKDTLMISRTPEVTCVVVDVSDEDGEVKFNWYVDGVEVHNAKTKPREEQYNSTYRVVSVLTVLHQDWLNGKEYKCKVSNAALPRPIEKTISKAKGQPREPQVYTLPPSRDELTKNQVSLTCLVKGFYPSDIAVEWESNGQPENNYKTTPPVLDSDGSFFLYSKLTVDKSRWQQGNVFSCSVMHEALHNHYTQESLSLSP light: not shown

The remaining lines, values behind:

Row | Binder | Kd [1] [nM] | Kd [2] [nM] | Kd [3] [nM] | Kd [4] [nM] | Kd [5] [nM] | Kd [6] [nM] | Kd [7] [nM] | Kd [8] [nM]
3 | IL6R-BP561/IL6R-L (antibody, human IgG1, kappa, copies: 2 + 2) heavy: QVQLQESGPGLVKPSETLSLTCAVSGHSISHDHAWSWVRQPPGEGLEWIGFISYSGITNYNPSLQGRVTISRDNSKNTLYLQMNSLRAEDTAVYYCARSLARTTAMDYWGEGTLVTVSSASTKGPSVFPLAPSSKSTSGGTAALGCLVKDYFPEPVTVSWNSGALTSGVHTFPAVLQSSGLYSLSSVVTVPSSSLGTQTYICNVNHKPSNTKVDKKVEPKSCDKTHTCPPCPAPDLLGDDSVFLFPPKPKDTLMISRTPEVTCVVVDVSDEDGDVKFNWYVDGVEVHNAKTKPREEQDNSTYRVVSVLTVLHQDWLNGKEYKCKVSNKALPRPIEKTISKAKGQPREPQVYTLPPSRDELTKNQVSLTCLVKGFYPSDIAVEWESNGQPENNYKTTPPVLDSDGSFFLYSKLTVDKSRWQQGNVFSCSVMHEALHNHYTQESLSLSP light: not shown | 9.4 | 18 | 510 | – | – | – | – | –
4 | IL6R-BP202/IL6R-L (antibody, human IgG1, kappa, copies: 2 + 2) heavy: QVQLQESGPGLVKPSETLSLTCAVSGHSISHDHAWSWVRQPPGEGLEWIGFISYSGITNYNPSLQGRVTISRDNSKNTLYLQMNSLRAEDTAVYYCARSLARTTAMDYWGEGTLVTVSSASTKGPSVFPLAPSSKSTSGGTAALGCLVKDYFPEPVTVSWNSGALTSGVHTFPAVLQSSGLYSLSSVVTVPSSSLGTQTYICNVNHKPSNTKVDKKVEPKSCDKTHTCPPCPAPELLGDDSVFLFPPKPKDTLMISRTPEVTCVVVDVSHEDGEVKFNWYVDGVEVHNAKTKPREEQYNSTYRVVSVLTVLHQDWLNGKEYKCKVSNAALPRPIEKTISKAKGQPREPQVYTLPPSRDELTKNQVSLTCLVKGFYPSDIAVEWESNGQPENNYKTTPPVLDSDGSFFLYSKLTVDKSRWQQGNVFSCSVMHEALHNHYTQESLSLSP light: not shown | – | – | – | – | 9200 | – | 95 | –
